Test results taken from a protein production outcome set (Wang et al. 2014).

Experiment: label from the status in PepcDB records
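Also: failed if final PepcDB status was selected cloned or expressed and not failed if soluble or beyond.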

Row | Sequence | protein production
1 | MSTATLPHTVGKRLFRQTLLLALALSVVFSAVFTVVEYYRSKVSLNESVELLKKTHLDAITAALWSLDRQQIAAQIDGIHHYPFISYVAVVDQGGVVVESGTRSELFGDVRRIDLTATYNGRQVSLGSLYLEIDRQAIMRDALSTAAVTLLFQTLTITIVMLFTFMLFERQVTRHLAAAADYFTSFGFARVQQPLQLDKHRYGDEIDALVEAFNRMRESLAVAYQQQQGMLQAVRESEALLRAIARRIPNGGVWVVDTDGRYIMFEGSLVESLGLSGQEALGRMPGDLFGEPLADRLVGCYRLALAGGTLSEEIEYRERVLWIQFAPLEDEHGAVMAAVALGIDVTERRQAEAERREMLQRLGQAHKMEAVGRLAGGIAHDYNNKLTVILGYAHVLKLTGFQSKEAPEQLDQIIRAAEHSRDITRQLLAFTRSERVNPVRVDLNRLISQSSKSLTRLIGEDITLSHVAGADLWPVRIDPTQADQLLMNLVMNARDAIAGTGSVTIATSNVVLDRATVRHLQGASPGEYVLMTVSDTGCGMDPEVMEHIFEPFYTTKEMGKGTGLGLATVYGIVRQNGGAISVESEPGGGSVFSIYLPRFVGESHDVRRLGEVDETLPARTTLLVDDDDAVRDITALMLRRLGHTVITASDPDEAIHLCQQPGIVVDLILTDVIMPSMNGREMVRSILSHQKAAKVLYMSGYPADVVEGRGAVDADARLLSRLLKLK | failed
2 | MSTDDPRFAGIARLYGIEGLARLRAAHVAIVGIGGVGSWAAEAMARSGVGEISLFDMDDVCVSNSNRQLHALDTTVGRPKVEVMAERIRAINPDCVVHAVSDFVTRDTMAECITPDMDFVIDCIDSVNAKAALISWCKRRKIQMVTTGAAGGQIDPTLIQIADLNRTFNDPLASKVRSTLRRDYGFSRTPNRHYSVPCVFSTEQLRYPKPDGSICLEKKFIGDGVKLDCAGGFGAVMMVTATFGMIAATRAVDKLVAGTRRPSERAKPAAVTANQA | failed
3 | MSTETIEIFNNSDEWANQLKHALSKGENLALLHGLTPDILDRIYAYAFDYHEKGNITDAEIYYKFLCIYAFENHEYLKDFASVCQPKKKYQQAYDLYKLSYNYFPYDDYSVIYRMGQCQIGAKNIDNAMQCFYHIINNCEDDSVKSKAQAYIELLNDNSEDNGLEHHHHHH | failed
4 | MSTIFDTHWPWMGIGIACVLIILLFFTNTLRSDLRVNRWYDPFWLAWFSSTAYFIHNFEEYGIDLFGRHFEFPHLMTQTMHITPEISFFTMINIPLIWIAGPILAMMSKHRPVISLIMTGLMFTNALSHIVPLISSGMYTSGLFTSIVIFIPGSLWIYYIRFIKGNLRWSILIVSLIPPIITQGLLMLSILMYRNDFLNDTTVTVFELLNGCLFIIIAFIMEKSFKRKYKN | failed
5 | MSTKGTILVTGGAGYIGSHTAVELLAHGYDVVIADNLVNSKREAIARIEKITGKTPAFHETDVSDERALARIFDAHPITAAIHFAALKAVGESVAKPIEYYRNNLDSLLSLLRVMRERAVKRIVFSSSATVYGVPERSPIDETFPLSATNPYGQTKLMAEQILRDVEAADPSWRVATLRYFNPVGAHESGLIGEDPAGIPNNLMPYVAQVAVGKLEKLRVFGSDYPTPDGTGVRDYIHVVDLARGHIAALDALERRDASLTVNLGTGRGYSVLEVVRAFEKASGRAVPYELVARRPGDVAECYANPAAAAETIGWKAERDLERMCADHWRWQENNPRGFV | not failed
6 | MSTKSKIFLVLLVFCPLSFAAHWLGWGETTVFILAGLAIVPLAAFMGTATEEIAVVIGPNAGGLLNATFGNATELILAYIALKEGLIEVVKATLTGSIIGNLLLVMGFAVFLGGLRYKEQNFQPLAARLNASTMNLGVVAILLPTALQYTSTGVEETVLQNLSVAVAVVLIGVYLLSLVFSMGTHAYLYDVGVAENMEMPELGEDVSEPEPPTEEEKPNLWLWTGVLLVVTLGVAVESELLVGSLEVATESLGLTALFTGVIVLPIIGNAAEHATAVTVAMKDKMDLSMSVVMGSSLQIAFFVAPVLVIVGWAIGQPMDLNFNPFELVAVLVAVLIVNSISSDGTSNWLEGILLLATYAIVALAFFFHPTLV | failed
7 | MSTLKLFVHNHSSKGDQSFLKTITFAITHFTVAFTVAYLLTGDILIGSLIAMVEPAINTVAYFFHEKIWARHQRNTTANAMNLRQNTH | failed
8 | MSTPSHLNAQPLVWGHGPRTFEVFLEPTCPYSVRAFNKLDDLLDEVGADNVTIKIRLQSQPWHLFSGVIVRCILAASTLPHGREQAHKVMQAVADHREEFEFTDHCSGPNMNATPQQIIERIERYSHVLLGAAFARPELQDVIKWHSKYARQNGIHVSPTFMVNGLVQPDLGSGDDVSVWAARIMA | failed
